Test results reported in patent US8338155B2, “Modified mevalonate kinase with reduced feedback inhibition” (DSM IP Assets B.V., priority 2004, dated 2012).

What was measured:
[1] = tested on: Saccharomyces cerevisiae mevalonate kinase; test: Mevalonate kinase activity assay (NADH consumption, photometric at 340 nm): specific activity; format: biochemical; details: purified His6-tagged enzyme; WT = non-mutated His6-tagged mevalonate kinase
Text: Methods for measuring specific activity are known to the person skilled in the art. The specific activity may for instance be determined via measuring the consumption of NADH. Suitable conditions for such measurement may be those as e.g. outlined in Example 1 except that, typically, saturating substrate concentrations are used or, in the case of enzyme inhibition at high substrate concentrations, at substrate concentrations that provide maximal activity under the particular experimental conditions.
(§1) For preparing mevalonate as substrate, 130 mg of DL-mevalonate lactone (FLUKA Chemie AG, Buchs, Switzerland) were dissolved in 5.5 ml of 0.2 M KOH and incubated for 15 min at 50° C. The solution was then adjusted to pH 7.0 by addition of 0.1 M HCl at room temperature (RT). Except if stated otherwise, the assay mixture consisted of 100 mM K2BPO/KH2PO4 (pH 7.0), 1 mM ATP, 2 mM MgCl2, 1 mM mevalonate, 0.5 mM phosphoenolpyruvate (PEP), 0.32 mM NADH, 20 U/ml pyruvate kinase and 27 U/ml lactate dehydrogenase (Sigma-Aldrich, St. Louis, Mo., USA). Inhibition was tested by adding 1 μM FPP.
(§2) Purification of His6-tagged mevalonate kinase and of His6-tagged mevalonate kinase mutant enzymes was done with Ni-NTA chromatography using the QIAexpress system/reagents of Qiagen. Upon addition of purified (His6-tagged) mevalonate kinase, enzymatic reaction reflected by consumption of NADH was followed by photometric measurement at 340 nm. One unit (1 U) of mevalonate kinase activity catalyzes the phosphorylation of 1 μmol of mevalonate per min.
(§3) Preparation of Mevalonate and Activity Measurement was Exactly Performed as Described in Example 1. 1 μM FPP was used for inhibition assays performed with the Saccharomyces cerevisiae mevalonate kinase wild-type enzyme and its mutants.

[2] = tested on: Paracoccus zeaxanthinifaciens strain R114; test: Coenzyme Q10 production in fed-batch cultivation of recombinant strains; format: cell-based; details: 70 h, strain R114 with plasmid pBBR-K-mev-op-(S. cerevisiae mvk-N66K/I152M)-PcrtE-ddsAwt vs pBBR-K-mev-op-(S. cerevisiae mvk)-PcrtE-ddsAwt
Text: To test the in vivo effect of mutation N66K/I152M on the production of coenzyme Q10, the DNA encoding S. cerevisiae mevalonate kinase mutant N66K/1152M (SEQ ID NO:5) is introduced into Paracoccus zeaxanthinifaciens and compared to the CoQ10 production in P. zeaxanthinifaciens carrying the DNA encoding the wild-type S. cerevisiae mevalonate kinase (SEQ ID NO:2).
Plasmids according to pBBR-K-mev-op-R114-PcrtE-ddsAwt, are constructed wherein the mevalonate operon, including its promoter region, from P. zeaxanthinifaciens R114 (see above) is replaced by either the DNA encoding the wild-type S. cerevisiae mevalonate kinase (SEQ ID NO:2) resulting in pBBR-K-mev-op-(S. cerevisiae mvk)-PcrtE-ddsAwt or the DNA encoding S. cerevisiae mevalonate kinase mutant N66K/1152M (SEQ ID NO:5) resulting in pBBR-K-mev-op-(S. cerevisiae mvk-N66K/I152M)-PcrtE-ddsAwt. […]
Coenzyme Q10 production is tested in fed-batch cultivations of P. zeaxanthinifaciens strains R114/pBBR-K-mev-opR114-PcrtE-ddsAwt, R114/pBBR-K-mev-op-(S. cerevisiae mvk)-PcrtE-ddsAwt and R114/pBBR-K-mev-op-(S. cerevisiae mvk-N66K/1152M)-PcrtE-ddsAwt. […] The precultures are incubated at 28° C. with shaking at 250 rpm for 28 h, after which time the optical density at 660 nm (OD660) is between 14 and 22 absorbance units, depending on the strain used. […]

[3] = tested on: Saccharomyces cerevisiae mevalonate kinase; test: Inhibition of mevalonate kinase activity by the feedback inhibitor FPP: feedback resistance; format: biochemical; details: 1 μM FPP; % resistance=100·((d/c)−(b/a))/(1−(b/a)) relative to wild-type
Experimental: “Feedback resistance” as used herein may be any increase in resistance to “feedback inhibition” (as defined above). Feedback resistance can be analyzed in different ways known to those skilled in the art. An appropriate example of such an analysis is shortly described herein: mevalonate kinase activity is measured in an activity assay at non-saturating concentrations of for instance ATP (or of another phosphate donor) and mevalonate (or mevalonate analogue), i.e., at for instance ATP (or phosphate donor) and mevalonate (or mevalonate analogue) concentrations around which the reaction rate is sensitive to changes of these substrate concentrations, e.g., at concentrations around the respective Km values of the enzyme under investigation for these substrates. The activities of both wild-type mevalonate kinase and of a variant/mutant of this enzyme are measured under otherwise identical conditions both in the absence and presence of a relevant concentration of a feedback inhibitor, i.e., at a concentration of feedback inhibitor affording significant inhibition of the wild-type mevalonate kinase. If the extent of inhibition (e.g., % inhibition) by the feedback inhibitor is lower for the mutant than for the wild-type enzyme, then the mutant is feedback resistant in the context of the present patent application. Once a feedback resistant variant/mutant has been identified, the same procedure as described above may be applied to identify further improved mutants, i.e., mutants that are even more feedback resistant. Feedback resistance (%) is calculated as follows: if (a) and (b) are the measured mevalonate kinase activities of the wild-type enzyme in the absence and presence, respectively, of the feedback inhibitor (e.g., FPP), and if (c) and (d) are the measured mevalonate kinase activities of the mutant enzyme in the absence and presence, respectively, of the same feedback inhibitor, then % feedback resistance is: % resistance=100·((d/c)−(b/a))/(1−(b/a))
as §1, §2, §3
Feedback resistance (%) was calculated according to the following formula: % resistance=100·((d/c)−(b/a))/(1−(b/a)) wherein (a) and (b) refer to the measured mevalonate kinase activities of the wild-type enzyme in the absence and presence, respectively, and (c) and (d) refer to the measured mevalonate kinase activities of the mutant enzyme in the absence and presence, respectively, of FPP. The results are shown in Tab. 1, wherein WT represents the non-mutated mevalonate kinase containing a His6-tag (SEQ ID NO:3).

B1: N66K, I152M: Saccharomyces cerevisiae mevalonate kinase mutant with substitutions N66K and I152M (encoding DNA SEQ ID NO:5) (protein, listed as Saccharomyces cerevisiae)
chain: MSLPFLTSAPGKVIIFGEHSAVYNKPAVAASVSALRTYLLISESSAPDTIELDFPDISFNHKWSIKDFNAITEDQVNSQKLAKAQQATDGLSQELVSLLDPLLAQLSESFHYHAAFCFLYMFVCLCPHAKNIKFSLKSTLPIGAGLGSSASMSVSLALAMAYLGGLIGSNDLEKLSENDKHIVNQWAFIGEKCIHGTPSGIDNAVATYGNALLFEKDSHNGTINTNNFKFLDDFPAIPMILTYTRIPRSTKDLVARVRVLVTEKFPEVMKPILDAMGECALQGLEIMTKLSKCKGTDDEAVETNNELYEQLLELIRINHGLLVSIGVSHPGLELIKNLSDDLRIGSTKLTGAGGGGCSLTLLRRDITQEQIDSFKKKLQDDFSYETFETDLGGTGCCLLSAKNLNKDLKIKSLVFQLFENKTTTKQQIDDLLLPGNTNLPWTS
Specific activity (% of wild-type) [1]: 148 % of wild-type
final concentration of coenzyme Q10 produced, higher than strain carrying wild-type S. cerevisiae mvk [2]: at least 5%
Feedback resistance (%) [3]: 67%
